Experimental data: publication PMC10582422, “Alzheimer's Progenitor Amyloid‐β Targets and Dissolves Microbial Amyloids and Impairs Biofilm Function” (Advanced Science, 2023)

Tests used:
P. aeruginosa PAO1 = assay: Antimicrobial sensitivity assay (MBEC peg biofilm), PAO1; format: cell-based; conditions: combined with Pen
Experimental: (§1) Microbial culture of K12 and PAO1 were added to 96‐well plates at OD 0.3 and incubated overnight at the static condition at 37 °C with Minimum Biofilm Eradication Concentration (MBEC) peg lids (Innovotech, Edmonton, Canada) where biofilms were formed on the pegs. […] After overnight incubation in the challenge plate, peg lids were removed, and swabs of the culture were picked from the pegs and streaked onto LB agar plates. The plates were incubated overnight at 37 °C and surviving colonies were confirmed by visual inspection and counted with the software Promega Colony Counter.

E. coli K‐12 = assay: Antimicrobial sensitivity assay (MBEC peg biofilm), K-12; format: cell-based; conditions: combined with Pen
Experimental: as §1

CsgA fibrils [1] = target: T1, CsgA fibrils (Escherichia coli, UniProt P28307); format: biochemical, E. coli; conditions: DLS, incubated without Aβ, as for TEM; n = 3
T1 construct: made in house; host or cells: E. coli
Experimental: (§2) Quartz cells with low volume capacity (100 µL) were used and measurements were performed using a Malvern Zetasizer Nano Series running DTS software and using a 4 mW He−Ne laser operating at a wavelength of 633 nm and equipped with an avalanche photodiode (APD) detector. The scattered light was detected at an angle of 173°.

CsgA fibrils [2] = target: T1, CsgA fibrils; format: biochemical, E. coli
Experimental: (§3) The percentage secondary structure was calculated by the CD data via Dichroweb analysis with parameters of Contin/reference set 4.

Caco‐2 cells = assay: Cell adhesion of FapC and CsgA amyloids to Caco-2 cells; format: cell-based; conditions: Alexa647-labelled, 10 µM, 24 h
Experimental: In comparison, FapC or CsgA amyloids alone (10 µM), labelled with Alexa647, were incubated with the cells under the same conditions. […] The cells were incubated for additional 24 h. All the cells in this experiment were fixed in 4% PFA, washed with PBS and then subjected to confocal imaging as described above. The size and number of the FapC or CsgA amyloids attached to the membrane of Caco‐2 cells were quantified from the images using Fiji ImageJ software.

Zeta potential = format: physicochemical; conditions: Malvern Zetasizer Nano; fibrils
FapC fibrils [3] = assay: ThT assay: disintegration of preformed FapC fibrils; format: biochemical, P. aeruginosa; conditions: 1.8 – 15 µM against 50 µM FapC; ThT 72 h
Experimental: FapC and CsgA fibrils were pre‐incubated with 50 µM of Thioflavin T dye for 3 h. […] The instrument was set to agitate the plate for 5 s before every reading. […]

FapC fibrils [4] = assay: TEM of FapC fibrils incubated with peptide; format: biochemical, P. aeruginosa; conditions: TEM at 1, 2 and 3 weeks
Excerpt: The samples were blotted with filter paper and grids were blotted twice with deionized water and then a drop of 1% uranyl acetate was placed on the grids for 30 s for negative staining. […] […] TEM grids were imaged with a Hitachi HT7700 TEM operating at 120 kV.

Aβ = conditions: cited from earlier work
Excerpt: Amyloid‐β (Aβ) is a peptide generated from the proteolytic cleavage of amyloid precursor protein (APP) expressed on the membrane and synapses of neurons. Based on the combination of enzymes that cleave APP, i.e., α‐, β‐ or γ‐secretase, the resulting Aβ can be a 40 (Aβ40) or 42 (Aβ42) residue peptide that is intrinsically disordered in structure.^[ [1] ^] Different environmental factors, familial mutations or localized concentrations of Aβ can trigger the aggregation of Aβ into oligomers. The oligomers can subsequently assemble into long twisted fibrils characterized by a so‐called amyloid fold ...

FapC fibrils [5] = assay: DLS size of FapC fibrils; format: biochemical, P. aeruginosa; conditions: incubated without Aβ, as for TEM, n = 3
Experimental: as §2

FapC fibrils [6] = assay: CD spectroscopy of FapC fibrils; format: biochemical, P. aeruginosa
Experimental: as §3

FapC monomers = assay: Self-seeding / fibrillization of FapC monomers (ThT, TEM); format: biochemical, P. aeruginosa; conditions: FapC monomers 15 µM
[7] = CD, Dichroweb Contin/reference set 4, 50 µM

T1 sequence (P28307 21-151): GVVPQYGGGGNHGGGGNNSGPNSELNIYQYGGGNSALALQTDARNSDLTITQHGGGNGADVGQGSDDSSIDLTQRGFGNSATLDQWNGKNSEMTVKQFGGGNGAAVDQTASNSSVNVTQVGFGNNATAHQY

[H]/N=C(/N)N[C@H]1[C@H](O)[C@@H](O)[C@H](O[C@@H]2O[C@@H](C)[C@](O)(C=O)[C@H]2O[C@@H]2O[C@@H](CO)[C@H](O)[C@@H](O)[C@@H]2NC)[C@@H](N/C(N)=N\[H])[C@@H]1O [Strep]
minimum concentration with slight antimicrobial effect (Strep), PAO1 (P. aeruginosa PAO1): 5e-06 µg/mL
minimum concentration with slight antimicrobial effect (Strep), K-12 (E. coli K‐12): 5e-06 µg/mL

CsgA: CsgA prepared recombinantly in E. coli; major subunit of the curli protein
hydrodynamic radius of CsgA fibrils, without Aβ (CsgA fibrils [1]): ≈ 1500 nm
CD negative peak, CsgA fibrils alone (CsgA fibrils [2]; 50 µM CsgA without Aβ, 48 h): 214 nm
β‐sheet content of CsgA fibrils, without Aβ (CsgA fibrils [2]; [7]): 42%
size of amyloid aggregates attached to Caco-2 membrane, without Aβ (Caco‐2 cells): ≈ 30 µm
zeta potential (Zeta potential): 37 mV

IAPP: human islet amyloid polypeptide (KCNTATCATQRLANFLVHSSNNFGAILSSTNVGSNTY; Islet amyloid polypeptide; UniProt P10997 34-70, looked up)
disintegration of FapC amyloids by IAPP or aSyn (FapC fibrils [3]): did not show any disintegration of FapC amyloids
TEM remodeling of FapC fibrils by IAPP or aSyn monomers (FapC fibrils [4]): no remodeling effect was observed for FapC fibrils

Solanezumab: monoclonal antibody in clinical trials
efficacy in phase 3 trials (Aβ; mild form of Alzheimer's disease, ref [6], [7]): some efficacy but not much promise in phase 3 trials

B1: FapC: FapC prepared recombinantly in E. coli; amyloid protein secreted by P. aeruginosa (protein, UniProt Q9I2F0 25-340, looked up)
Functional amyloid subunit …: GNEGGWHPPKPNPQSNNKGGATALVVDTQQNYNNKVSNFGTLNNASVSGSIKDASGNVGVNVAAGDNNQQANAAALASADASFVFGTATASTSVLQSGYGNTLNNYSNPNTASLSNSANNVSGNLGVNVAAGNFNQQKNDLAAAVSNGQYSTAGSAASQTSTGNTTVNSANYAYGGTYVSLKLNADGSYKGTSDQIGDVYLDTWEGQTHPGGSNTGHIDVDSQAQGAKDLNHDGGAFAFKEKGDVDLKGTVSGFIPAIVGFKTPVTNNASLSNSLQNVSGNVGVNIAAGGGNQQSNSLSIAAGCSSCPAGGESLGF
hydrodynamic radius of FapC fibrils, without Aβ (FapC fibrils [5]): ≈ 550 nm
CD negative peak, FapC fibrils alone (FapC fibrils [6]; 50 µM FapC without Aβ, 48 h): 214 nm
random coil content of FapC fibrils, without Aβ (FapC fibrils [6]; [7]): 22%
β‐sheet content of FapC fibrils, without Aβ (FapC fibrils [6]; [7]): 47%
size of amyloid aggregates attached to Caco-2 membrane, without Aβ (Caco‐2 cells): ≈ 30 µm
zeta potential (Zeta potential): 47 mV

B2: sonicated FapC: Sonicated FapC seeds used as control (protein, UniProt Q9I2F0 25-340, looked up)
Functional amyloid subunit …: GNEGGWHPPKPNPQSNNKGGATALVVDTQQNYNNKVSNFGTLNNASVSGSIKDASGNVGVNVAAGDNNQQANAAALASADASFVFGTATASTSVLQSGYGNTLNNYSNPNTASLSNSANNVSGNLGVNVAAGNFNQQKNDLAAAVSNGQYSTAGSAASQTSTGNTTVNSANYAYGGTYVSLKLNADGSYKGTSDQIGDVYLDTWEGQTHPGGSNTGHIDVDSQAQGAKDLNHDGGAFAFKEKGDVDLKGTVSGFIPAIVGFKTPVTNNASLSNSLQNVSGNVGVNIAAGGGNQQSNSLSIAAGCSSCPAGGESLGF
modifications: sonicated fibril seeds
notes: Sonicated FapC seeds used as control
self-seeding of FapC monomers by sonicated seeds (FapC monomers): a significant increase in ThT kinetics was observed

B3: Lecanemab: humanized IgG1 monoclonal antibody that binds with soluble protofibrils of Aβ (antibody, chains of the INN, looked up, V domains shown)
VH: EVQLVESGGGLVQPGGSLRLSCSASGFTFSSFGMHWVRQAPGKGLEWVAYISSGSSTIYYGDTVKGRFTISRDNAKNSLFLQMSSLRAEDTAVYYCAREGGYYYGRSYYTMDYWGQGTTVTVSS
VL: DVVMTQSPLSLPVTPGAPASISCRSSQSIVHSNGNTYLEWYLQKPGQSPKLLIYKVSNRFSGVPDRFSGSGSGTDFTLRISRVEAEDVGIYYCFQGSHVPPTFGPGTKLEIK
efficacy in phase 2 clinical trials (Aβ; early onset Alzheimer's disease, ref [8]): limited improvement in cognition and reduced Aβ burden
